Laboratory results reported in the supplement of paper PMC10126150.
± gives the standard deviation of the averaged measurements.
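Note: ATP exposure 15 min at 22 °C before imaging.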

These sequences were tested on ATP (assay: switch fluorescence ratio, 500 uM ATP over buffer (Cy3 cluster intensity, sum of 5 cycles each) (fold (ratio)); higher = stronger signal-on switching upon ATP binding; sequences stand for … in TCGTCGGCAGCGTCAGATGTGTATAAGAGACAGTTTTTTTTTTTTTTTTTTTTTTTTT…TC). Conditions: aptamer strand: ATP DNA aptamer (quencher-CACCTGGGGGAGTATTGCGGAGGAAGG + anchor), 100 nM annealed; ATP concentration: 500 uM.
Outline: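 Values give the fluorescence ratio for each switch-domain sequence, averaged from per-cluster ratios of summed target-cycle to summed buffer-cycle Cy3 intensity. The Cy3-labelled switching-strand clusters sat on a modified Illumina MiSeq flow-cell, were annealed to 100 nM quencher-labelled ATP aptamer, and were imaged in selection buffer, then after 15 min with 500 uM ATP at 22 °C. Five cycles ran with NaOH stripping and re-annealing between them, and clusters outside 100-1000 RFU were excluded.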
Work on AGTGCTTTTT yielded a switch fluorescence ratio of 1.01 ± 0.012. CTTGGTGTAT showed a switch fluorescence ratio of 1.03 ± 0.086. In the case of TTCTTGTGTG, the switch fluorescence ratio is reported as 1 ± 0.041. In the case of GATTTTTACG, the switch fluorescence ratio is reported as 1 ± 0.033. Sequence GCTGTAACTG has a switch fluorescence ratio of 1.08 ± 0.017. CGCTTTGGGT was tested, and the switch fluorescence ratio was 0.99 ± 0.018. For ACGGTTTATG, the switch fluorescence ratio was 1.01 ± 0.058. Sequence CGACAAGCAG has a switch fluorescence ratio of 1.09 ± 0.026. For CGGATCTTGT, the switch fluorescence ratio was 0.961 ± 0.021. AGGAGGGATG was tested, and the switch fluorescence ratio was 0.985 ± 0.022. CCGGGGTTAG was tested, and the switch fluorescence ratio was 1.38 ± 0.42. In the case of AAAAATGTGT, the switch fluorescence ratio is reported as 0.971 ± 0.01. With GTTTCTGGTG the switch fluorescence ratio was 1.13 ± 0.064. In the case of AGACGTCCCA, the switch fluorescence ratio is reported as 1.02 ± 0.022. Work on GCGGTTGCCA yielded a switch fluorescence ratio of 0.982 ± 0.033. GAGACGGTCT showed a switch fluorescence ratio of 1.05 ± 0.025. GGCATCATGT showed a switch fluorescence ratio of 1.012 ± 0.0039. In the case of CGTTAAACGT, the switch fluorescence ratio is reported as 1.01 ± 0.036. GGGGATAAGT was tested, and the switch fluorescence ratio was 1.04 ± 0.054. For CATAATCCGG, the switch fluorescence ratio was 0.9679 ± 0.0022. CTGTGGAGGG gave a switch fluorescence ratio of 0.9455 ± 0.0091. TTTCTAGTTT showed a switch fluorescence ratio of 0.984 ± 0.026. CAGCTAGTCC showed a switch fluorescence ratio of 1.176 ± 0.0035. In the case of TTAGCTACCT, the switch fluorescence ratio is reported as 1.11 ± 0.19. Work on ATCTGAAGGT yielded a switch fluorescence ratio of 0.975 ± 0.031. GATTATAATC showed a switch fluorescence ratio of 1.01 ± 0.015. TTCCAAGGGT showed a switch fluorescence ratio of 1.76 ± 1.5. For GCCTTTTTTT, the switch fluorescence ratio was 0.991 ± 0.029. Work on AGTAAGGATC yielded a switch fluorescence ratio of 1 ± 0.031. Sequence ATATTATGAT has a switch fluorescence ratio of 0.985 ± 0.03. ATAGGGGTCG showed a switch fluorescence ratio of 1.01 ± 0.076. In the case of TCTTGTATTC, the switch fluorescence ratio is reported as 0.9938 ± 0.0094. TTCTTGGACA gave a switch fluorescence ratio of 0.993 ± 0.016. In the case of TAAGTGCCAC, the switch fluorescence ratio is reported as 1.01 ± 0.024. TTCAAAAAGT showed a switch fluorescence ratio of 0.991 ± 0.021. CGATGTAGGT gave a switch fluorescence ratio of 1.02 ± 0.025. With CCGGGGTTTT the switch fluorescence ratio was 1.11 ± 0.22. In the case of ACTTGATGGG, the switch fluorescence ratio is reported as 0.992 ± 0.045. With AAGGAAGGGG the switch fluorescence ratio was 1.14 ± 0.2. For TCTGGTCCGG, the switch fluorescence ratio was 0.997 ± 0.015. CTAAAAGAGG showed a switch fluorescence ratio of 0.997 ± 0.019. With AGTGGAATTC the switch fluorescence ratio was 1.04 ± 0.012. For CAATGTAGGT, the switch fluorescence ratio was 1.02 ± 0.02. Sequence GCCTTATTTT has a switch fluorescence ratio of 1 ± 0.027. Sequence GCAAGAGATG has a switch fluorescence ratio of 1.01 ± 0.027. Work on ATAGTTGGGA yielded a switch fluorescence ratio of 1.018 ± 0.0011. ATGGATTGAT showed a switch fluorescence ratio of 0.9621 ± 0.0051. GGATGCTGTG gave a switch fluorescence ratio of 0.991 ± 0.013. Sequence ATAGAAATTG has a switch fluorescence ratio of 1.01 ± 0.035. For TAACGCCATC, the switch fluorescence ratio was 1.51 ± 0.035. AGTCTAAGGG showed a switch fluorescence ratio of 0.993 ± 0.013. For ATATTCGTTG, the switch fluorescence ratio was 1.007 ± 0.0027. For TTATGCTTGG, the switch fluorescence ratio was 0.976 ± 0.031. With TATTCAGATA the switch fluorescence ratio was 0.9773 ± 0.008. For TGTTGAACGT, the switch fluorescence ratio was 1.004 ± 0.0086. For TGATTTATAG, the switch fluorescence ratio was 1.012 ± 0.009. TTTATTGTT was tested, and the switch fluorescence ratio was 0.99 ± 0.018. GGGGGATCGC gave a switch fluorescence ratio of 1.01 ± 0.025. In the case of GACGGAGTCG, the switch fluorescence ratio is reported as 0.997 ± 0.03. With ACAAACTGGT the switch fluorescence ratio was 1 ± 0.019. AAAATTGTTT gave a switch fluorescence ratio of 1.01 ± 0.031. In the case of GGTAGTTAAA, the switch fluorescence ratio is reported as 0.999 ± 0.024. In the case of ATATTGCTGG, the switch fluorescence ratio is reported as 0.9724 ± 0.0085. For TTTGTTGGGC, the switch fluorescence ratio was 0.981 ± 0.028. TGTGGGGAGG gave a switch fluorescence ratio of 0.969 ± 0.027. In the case of GCGGTGGTTT, the switch fluorescence ratio is reported as 0.998 ± 0.017. Sequence GGGGGAAGTA has a switch fluorescence ratio of 1.041 ± 0.0027. CTGGTTAATT gave a switch fluorescence ratio of 0.973 ± 0.017. TTTCTTTCTT showed a switch fluorescence ratio of 1.05 ± 0.083. For TGTTTAAAGG, the switch fluorescence ratio was 1.02 ± 0.051. GAAATAATGG showed a switch fluorescence ratio of 1.03 ± 0.041. In the case of ATTAACTAAA, the switch fluorescence ratio is reported as 1.02 ± 0.017. GGGGTCTTTT gave a switch fluorescence ratio of 0.999 ± 0.033. AGCGGGGGTA showed a switch fluorescence ratio of 1.01 ± 0.034. Sequence CGTTGGCGTG has a switch fluorescence ratio of 0.947 ± 0.036. GAGTTAAAAG gave a switch fluorescence ratio of 1.01 ± 0.02. For TGGAGTGGGG, the switch fluorescence ratio was 1 ± 0.025. TGACCGAGAA was tested, and the switch fluorescence ratio was 1.06 ± 0.028. For GTTAACCAGC, the switch fluorescence ratio was 1.05 ± 0.016. TAGTGGGGCA gave a switch fluorescence ratio of 0.966 ± 0.033. With TAGTGTTTCT the switch fluorescence ratio was 1.01 ± 0.018. With ACTCTAGTTC the switch fluorescence ratio was 1.063 ± 0.01. Sequence TTTTAACAAT has a switch fluorescence ratio of 1.021 ± 0.0098. GTGTTGTTGT gave a switch fluorescence ratio of 0.998 ± 0.016. In the case of TAACGGCATT, the switch fluorescence ratio is reported as 1.08 ± 0.037. Sequence TGGTCTAATG has a switch fluorescence ratio of 0.9791 ± 0.002. With TTAAAGATTT the switch fluorescence ratio was 1.07 ± 0.098. Sequence GCGTTAGCTT has a switch fluorescence ratio of 0.982 ± 0.069. For ATGGGTCTT, the switch fluorescence ratio was 1.01 ± 0.023. TATACGAATT gave a switch fluorescence ratio of 1.02 ± 0.074. ACACCCTTAT showed a switch fluorescence ratio of 1.127 ± 0.011. Sequence CGCGTTGTGG has a switch fluorescence ratio of 1.03 ± 0.012. For TTTATTATGA, the switch fluorescence ratio was 1.01 ± 0.026. TTTTACGCCT was tested, and the switch fluorescence ratio was 1.02 ± 0.012. For CCGAGTTAAG, the switch fluorescence ratio was 1.08 ± 0.012. CACTCTACGA gave a switch fluorescence ratio of 1.41 ± 0.073. Sequence TGGTTAGGGA has a switch fluorescence ratio of 1.01 ± 0.026. CGATTGCGTG showed a switch fluorescence ratio of 1 ± 0.05. In the case of TTATAGCAGT, the switch fluorescence ratio is reported as 1.06 ± 0.04. GGGGAATTAA showed a switch fluorescence ratio of 0.99 ± 0.018. TAGGGTTGGG gave a switch fluorescence ratio of 1 ± 0.031. TGACTGGGCG gave a switch fluorescence ratio of 1.0063 ± 0.00065. GGTTTTGGGC showed a switch fluorescence ratio of 1.02 ± 0.042. With ATTTATGAGG the switch fluorescence ratio was 1.01 ± 0.016. For ATTTAGCCGC, the switch fluorescence ratio was 1.02 ± 0.017. AGAATTCAAC showed a switch fluorescence ratio of 1.003 ± 0.004. In the case of AGGTACTGTA, the switch fluorescence ratio is reported as 1.01 ± 0.011. Work on GAGGTTTCTA yielded a switch fluorescence ratio of 0.993 ± 0.038. TCTAGAAGCG gave a switch fluorescence ratio of 1.0039 ± 0.00082. In the case of ACCATGCCGG, the switch fluorescence ratio is reported as 1 ± 0.077. GACTGAGTTG was tested, and the switch fluorescence ratio was 0.998 ± 0.036. In the case of AAGCGTGGGG, the switch fluorescence ratio is reported as 1.02 ± 0.025. TAAACACGTG showed a switch fluorescence ratio of 0.987 ± 0.053. TGGGGATGGA was tested, and the switch fluorescence ratio was 0.998 ± 0.02. For GGTCGAGGGT, the switch fluorescence ratio was 1.022 ± 0.0041. With GGGGCGTGTA the switch fluorescence ratio was 0.977 ± 0.029. AGGATGGGTG was tested, and the switch fluorescence ratio was 0.991 ± 0.021. With TGATTTTGTT the switch fluorescence ratio was 1.01 ± 0.018. With GGTGAGGTGC the switch fluorescence ratio was 0.9995 ± 0.0084. Sequence TGGTGTATCC has a switch fluorescence ratio of 0.985 ± 0.019. In the case of AGAGGTGTCT, the switch fluorescence ratio is reported as 1 ± 0.049. For TTGGATTGTT, the switch fluorescence ratio was 1.04 ± 0.025. Sequence TTTGGTTTTC has a switch fluorescence ratio of 1.02 ± 0.033. In the case of TTTCATTAAA, the switch fluorescence ratio is reported as 0.994 ± 0.033. In the case of GAAATAAATA, the switch fluorescence ratio is reported as 0.9835 ± 0.0081. Sequence GGTATATGGG has a switch fluorescence ratio of 0.994 ± 0.03. With TATTTGGGCG the switch fluorescence ratio was 1.053 ± 0.0059. CATCTCAGTG gave a switch fluorescence ratio of 1.03 ± 0.015. Sequence CAAGGATTTA has a switch fluorescence ratio of 1.02 ± 0.044. Sequence GCTATAGTGT has a switch fluorescence ratio of 0.992 ± 0.021. AATGTTCAAA gave a switch fluorescence ratio of 0.995 ± 0.023. In the case of CTGTAAGGCC, the switch fluorescence ratio is reported as 0.981 ± 0.015. For TGGTACAGGG, the switch fluorescence ratio was 1.03 ± 0.018. Sequence CGTGCTGGTT has a switch fluorescence ratio of 1.01 ± 0.061. Work on TTTCGGTTAT yielded a switch fluorescence ratio of 1.02 ± 0.021. GGGCAGGTGG was tested, and the switch fluorescence ratio was 1.08 ± 0.065. Work on GGTGAGGCTG yielded a switch fluorescence ratio of 0.996 ± 0.015. Work on ATGAGTTATT yielded a switch fluorescence ratio of 1.01 ± 0.013. Work on CGGGAGAACC yielded a switch fluorescence ratio of 0.9981 ± 0.0082. Sequence GCCGTAGCTG has a switch fluorescence ratio of 1.02 ± 0.037. Work on TATGCTAGTA yielded a switch fluorescence ratio of 0.992 ± 0.025. Sequence GACTTCGAGC has a switch fluorescence ratio of 1.02 ± 0.024. In the case of CGTTTTGCAT, the switch fluorescence ratio is reported as 1.09 ± 0.11. Sequence GAAATGGGGT has a switch fluorescence ratio of 0.977 ± 0.037. In the case of ATTGCAATGG, the switch fluorescence ratio is reported as 1.6 ± 0.034. TATTTTAGAG showed a switch fluorescence ratio of 0.966 ± 0.018. Sequence GGTTATGGTA has a switch fluorescence ratio of 0.9715 ± 0.0063. With AGCATGGTTT the switch fluorescence ratio was 1.02 ± 0.029. GGGTTGGCGT gave a switch fluorescence ratio of 0.956 ± 0.012. With TGCGTGGGGT the switch fluorescence ratio was 1.01 ± 0.022. ATCGTTCCGC showed a switch fluorescence ratio of 1.22 ± 0.03. Work on AGGGGTGAGT yielded a switch fluorescence ratio of 1.02 ± 0.04. CGAGTGGAGG was tested, and the switch fluorescence ratio was 1.03 ± 0.011. With TGGGGGGCAC the switch fluorescence ratio was 0.986 ± 0.043. With AATCGTTAAA the switch fluorescence ratio was 0.9812 ± 0.0069. Work on ACTAGAGGCA yielded a switch fluorescence ratio of 1 ± 0.024. For TACTCTTCAT, the switch fluorescence ratio was 1.12 ± 0.15.
